In doi:10.1101/2022.12.01.518643 (bioRxiv, 2022):

Assays:
[1] = molecular target: soluble DP4 (HLA-DPA1*01:03/DPB1*04:01) (human); assay: fluorescence polarisation
[2] = molecular target: soluble DP4 (HLA-DPA1*01:03/DPB1*04:01) (human); assay: fluorescence polarisation; remark: listed apart in the source

| Molecule | IC50 [1] [nM] | fold change of binding against the OC43 peptide P4 [2] [fold] |
| --- | --- | --- |
| OC43 hemagglutinin esterase peptide 259–273 (P1) | < 1000 | – |
| RSFIEDLLFNKVTLA (modifications not checked) [SARS-CoV-2 homolog of the OC43 peptide P4] | – | 10 |
